Experimental data from US20240034774A1 (Gilead, published 2024).

Tests used:
[1] = molecular target: HIV-1 envelope glycoprotein gp120 of viral isolate 92US712 (HIV-1); assay: cell-based or functional assay
[2] = molecular target: HIV-1 envelope glycoprotein gp120 of viral isolate 92US657 (HIV-1); assay: cell-based or functional assay
BSA = BSA (UniProt P02769 25-607); assay: single-point ELISA, BSA control
gp120 Bal = gp120 Bal (HIV (Bal)); assay: single-point ELISA at EC50 conc. of A-1
gp120 CAAN = gp120 CAAN (HIV (CAAN)); assay: single-point ELISA at EC50 conc. of A-1
gp120 SHIV SF162 P3 = gp120 SHIV SF162 P3 (SHIV SF162 P3); assay: single-point ELISA at EC50 conc. of A-1

| Binder | ADCC EC50, NK Donor 1 [1] | ADCC EC50, NK Donor 2 [1] | ADCC EC50, NK Donor 3 [1] | ADCC Emax, NK Donor 1 [1] | ADCC Emax, NK Donor 2 [1] | ADCC Emax, NK Donor 3 [1] | ADCC EC50, NK Donor 1 [2] | ADCC EC50, NK Donor 2 [2] | ADCC EC50, NK Donor 3 [2] | ADCC Emax, NK Donor 1 [2] | ADCC Emax, NK Donor 2 [2] | ADCC Emax, NK Donor 3 [2] | ELISA A450 (BSA) | ELISA A450 (gp120 Bal) | ELISA A450 (gp120 CAAN) | ELISA A450 (gp120 SHIV SF162 P3) |
| --- | --- | --- | --- | --- | --- | --- | --- | --- | --- | --- | --- | --- | --- | --- | --- | --- |
| Antibody A-3 (antibody, human IgG1, kappa) heavy: QVQLLQSGAAVTKPGASVRVSCEASGYNIRDYFIHWWRQAPGQGLQWVGWINPKTGQPNNPRQFQGRVSLTRHASWDFDTFSFYMDLKALRSDDTAVYFCARQRSDYWDFDVWGSGTQVTVSSASTKGPSVFPLAPSSKSTSGGTAALGCLVKDYFPEPVTVSWNSGALTSGVHTFPAVLQSSGLYSLSSVVTVPSSSLGTQTYICNVNHKPSNTKVDKKVEPKSCDKTHTCPPCPAPELLGGPDVFLFPPKPKDTLMISRTPEVTCVVVDVSHEDPEVKFNWYVDGVEVHNAKTKPREEQYNSTYRVVSVLTVLHQDWLNGKEYKCKVSNKALPAPEEKTISKAKGQPREPQVYTLPPSREEMTKNQVSLTCLVKGFYPSDIAVEWESNGQPENNYKTTPPVLDSDGSFFLYSKLTVDKSRWQQGNVFSCSVLHEALHSHYTQKSLSLSPGK light: DIQMTQSPSSLSASVGDTVTITCQANGYLNWYQQRRGKAPKLLIYDGSKLERGVPSRFSGRRWGQEYNLTINNLQPEDIATYFCQVYEFVVPGTRLDLKRTVAAPSVFIFPPSDEQLKSGTASVVCLLNNFYPREAKVQWKVDNALQSGNSQESVTEQDSKDSTYSLSSTLTLSKADYEKHKVYACEVTHQGLSSPVTKSFNRGEC | 0.07 µg/mL | 0.08 µg/mL | 0.2 µg/mL | 77% | 59% | 67% | 0.68 µg/mL | 0.67 µg/mL | 1.39 µg/mL | 49% | 49% | 56% | – | – | – | – |
| Antibody A-4 (antibody, human IgG1, kappa) heavy: QVQLLQSGAAVTKPGASVRVSCEASGYNIRDYFIHWWRQAPGQGLQWVGWINPKTGQPNNPRQFQGRVSLTRHASWDFDTFSFYMDLKALRSDDTAVYFCARQRSDYWDFDVWGSGTQVTVSSASTKGPSVFPLAPSSKSTSGGTAALGCLVKDYFPEPVTVSWNSGALTSGVHTFPAVLQSSGLYSLSSVVTVPSSSLGTQTYICNVNHKPSNTKVDKKVEPKSCDKTHTCPPCPAPELLAGPDVFLFPPKPKDTLMISRTPEVTCVVVDVSHEDPEVKFNWYVDGVEVHNAKTKPREEQYNSTYRVVSVLTVLHQDWLNGKEYKCKVSNKALPAPEEKTISKAKGQPREPQVYTLPPSREEMTKNQVSLTCLVKGFYPSDIAVEWESNGQPENNYKTTPPVLDSDGSFFLYSKLTVDKSRWQQGNVFSCSVLHEALHSHYTQKSLSLSPGK light: DIQMTQSPSSLSASVGDTVTITCQANGYLNWYQQRRGKAPKLLIYDGSKLERGVPSRFSGRRWGQEYNLTINNLQPEDIATYFCQVYEFVVPGTRLDLKRTVAAPSVFIFPPSDEQLKSGTASVVCLLNNFYPREAKVQWKVDNALQSGNSQESVTEQDSKDSTYSLSSTLTLSKADYEKHKVYACEVTHQGLSSPVTKSFNRGEC | 0.2 µg/mL | 0.13 µg/mL | 0.4 µg/mL | 78% | 61% | 64% | 0.6 µg/mL | 1.21 µg/mL | 1.64 µg/mL | 52% | 53% | 50% | – | – | – | – |
| Antibody A-5 (antibody, human IgG1, kappa) heavy: QVQLLQSGAAVTKPGASVRVSCEASGYNIRDYFIHWWRQAPGQGLQWVGWINPKTGQPNNPRQFQGRVSLTRHASWDFDTFSFYMDLKALRSDDTAVYFCARQRSDYWDFDVWGSGTQVTVSSASTKGPSVFPLAPSSKSTSGGTAALGCLVKDYFPEPVTVSWNSGALTSGVHTFPAVLQSSGLYSLSSVVTVPSSSLGTQTYICNVNHKPSNTKVDKKVEPKSCDKTHTCPPCPAPELLGGPDVFLFPPKPKDTLMISRTPEVTCVVVDVSHEDPEVKFNWYVDGVEVHNAKTKPREEQYNSTYRVVSVLTVLHQDWLNGKEYKCKVSNKALPLPEEKTISKAKGQPREPQVYTLPPSREEMTKNQVSLTCLVKGFYPSDIAVEWESNGQPENNYKTTPPVLDSDGSFFLYSKLTVDKSRWQQGNVFSCSVLHEALHSHYTQKSLSLSPGK light: DIQMTQSPSSLSASVGDTVTITCQANGYLNWYQQRRGKAPKLLIYDGSKLERGVPSRFSGRRWGQEYNLTINNLQPEDIATYFCQVYEFVVPGTRLDLKRTVAAPSVFIFPPSDEQLKSGTASVVCLLNNFYPREAKVQWKVDNALQSGNSQESVTEQDSKDSTYSLSSTLTLSKADYEKHKVYACEVTHQGLSSPVTKSFNRGEC | 0.19 µg/mL | 0.08 µg/mL | 0.09 µg/mL | 79% | 61% | 66% | 0.57 µg/mL | 0.83 µg/mL | 0.76 µg/mL | 58% | 61% | 61% | – | – | – | – |
| 1.35.36-1 (antibody, human IgG1, kappa) heavy: QVQLVQSGAEVKKPGASVRVSCKASGYNIRDYFMHWWRQAPGQGLQWVGWINPKTGQPNNPRQFQGRVTMTRHASWDFDTFSFYMDLSRLRSDDTATYFCARQRTDYWDFDVWGQGTMVTVSSASTKGPSVFPLAPSSKSTSGGTAALGCLVKDYFPEPVTVSWNSGALTSGVHTFPAVLQSSGLYSLSSVVTVPSSSLGTQTYICNVNHKPSNTKVDKKVEPKSCDKTHTCPPCPAPELLAGPDVFLFPPKPKDTLMISRTPEVTCVVVDVSHEDPEVKFNWYVDGVEVHNAKTKPREEQYNSTYRVVSVLTVLHQDWLNGKEYKCKVSNKALPLPEEKTISKAKGQPREPQVYTLPPSREEMTKNQVSLTCLVKGFYPSDIAVEWESNGQPENNYKTTPPVLDSDGSFFLYSKLTVDKSRWQQGNVFSCSVLHEALHSHYTQKSLSLSPGK light: DIQMTQSPSSLSASVGDRVTITCQANGYLNWYQQKPGKAPKLLIYDGSNLETGVPSRFSGSRWGQEYTLTISSLQPEDIATYFCQVYEFVTPGTNLDIKRTVAAPSVFIFPPSDEQLKSGTASVVCLLNNFYPREAKVQWKVDNALQSGNSQESVTEQDSKDSTYSLSSTLTLSKADYEKHKVYACEVTHQGLSSPVTKSFNRGEC | – | – | – | – | – | – | – | – | – | – | – | – | 0.06 A450 | 0.85 A450 | 0.67 A450 | 0.56 A450 |
| 1.36.36-1 (antibody, human IgG1, kappa) heavy: QVQLVQSGAEVKKPGASVRVSCKASGYNIRDYFMHWWRQAPGQGLQWVGWINPKTGQPNNPRQFQGRVTMTRHASWDFDTFSAYMDLSRLRSDDTATYFCARQRTDYWDFDVWGQGTMVTVSSASTKGPSVFPLAPSSKSTSGGTAALGCLVKDYFPEPVTVSWNSGALTSGVHTFPAVLQSSGLYSLSSVVTVPSSSLGTQTYICNVNHKPSNTKVDKKVEPKSCDKTHTCPPCPAPELLAGPDVFLFPPKPKDTLMISRTPEVTCVVVDVSHEDPEVKFNWYVDGVEVHNAKTKPREEQYNSTYRVVSVLTVLHQDWLNGKEYKCKVSNKALPLPEEKTISKAKGQPREPQVYTLPPSREEMTKNQVSLTCLVKGFYPSDIAVEWESNGQPENNYKTTPPVLDSDGSFFLYSKLTVDKSRWQQGNVFSCSVLHEALHSHYTQKSLSLSPGK light: DIQMTQSPSSLSASVGDRVTITCQANGYLNWYQQKPGKAPKLLIYDGSNLETGVPSRFSGSRWGQEYTLTISSLQPEDIATYFCQVYEFVTPGTNLDIKRTVAAPSVFIFPPSDEQLKSGTASVVCLLNNFYPREAKVQWKVDNALQSGNSQESVTEQDSKDSTYSLSSTLTLSKADYEKHKVYACEVTHQGLSSPVTKSFNRGEC | – | – | – | – | – | – | – | – | – | – | – | – | 0.06 A450 | 1.12 A450 | 0.34 A450 | 0.14 A450 |
